These results are taken from paper PMC3582033 (Cell, 2011).

Assay [1] concerns the target H3(1-28) with acetylated K18 (UniProt P68431 2-29, acetyl-lysine at K18). The assay is described as follows: ITC.
Assay [2] has as its target H3(1-28)K9me3K18ac histone peptide (UniProt P68431 2-29, trimethyl-lysine at K9; acetyl-lysine at K18). The assay is described as follows: ITC. A general note: Isothermal titration calorimetry measures the heat released or taken up as one component is titrated into another.

B1: TRIM33 PHD-Bromo cassette (domain or fragment)
chain: DDDPNEDWCAVCQNGGDLLCCEKCPKVFHLTCHVPTLLSFPSGDWICTFCRDIGKPEVEYDCDNLQHSKKGKTAQGLSPVDQRKCERLLLYLYCHELSIEFQEPVPASIPNYYKIIKKPMDLSTVKKKLQKKHSQHYQIPDDFVADVRLIFKNCERFNEMMKVVQVYADTQEINLKADSEVAQAGKAVALYFEDKLTEIYSDRTFA
With B1, the “fold enhancement of binding over unmodified H3(1-28)” value in assay [1] is 2.3 fold; in assay [2], 3.5 fold.
